PMC4446444, “Stable complex formation of CENP-B with the CENP-A nucleosome”
Each block holds one molecule with its values, some of them ahead of it.

Columns and labels:
[1] = molecular target: His6-tagged CENP-B DBD complexed with a 21 base-pair DNA (human) (UniProt P07199); test: pull-down; His6-tagged CENP-B DBD with 21 base-pair CENP-B box DNA (50 nM) held on Ni-NTA agarose beads; histone complex 50 nM; 20 mM Tris-HCl pH 8.0, 300 mM NaCl, 60 mM imidazole, 0.3% Tween-20, BSA, 4 °C 60 min; washes with 500 mM NaCl, 30 mM imidazole; 16% SDS-PAGE with Coomassie
CENP-B DBD = molecular target: T1, CENP-B DBD (Homo sapiens, UniProt P07199 1-129); test: competition; naked competitor; DBD-DNA complex increases with DNA amount; Buffer of the EMSA and competition assays not in material (6% native PAGE, ethidium bromide); pull-down: 20 mM Tris-HCl pH 8.0, 300 mM NaCl, 60 mM imidazole, 0.3% Tween-20, 0.01 ug/ul BSA, 4 C, 60 min; conditions: protein: recombinant; blunt
T1 sequence: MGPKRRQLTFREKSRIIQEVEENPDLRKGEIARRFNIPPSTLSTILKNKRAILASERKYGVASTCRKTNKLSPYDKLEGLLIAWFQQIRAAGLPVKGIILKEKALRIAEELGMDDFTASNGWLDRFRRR

percent of H4 in the CENP-B-bound fraction against the CENP-A-H4 complex [1]: 4%
Molecule: H3.1^CATD-H4 complex (from UniProt P68431 1-75; P49450 75-114; P68431 114-136; P62805 1-103)

B1: 166-bp alpha-satellite DNA, proximal CENP-B box (naked) (dsDNA)
DNA 1: ATCTATTTGGACCGCATTGAGGCCTTCGTTGGAAACGGGATTTCTTCATTTCATGCTAGACAGAAGAATTCTCAGTAACTTCTTTGTGCTGTGTGTATTCAACTCACAGAGTGGAACGTCCCTTTGCACAGAGCAGATTTGAAACACTCTTTTTGTAGTCGACGAT
DNA 2: ATCGTCGACTACAAAAAGAGTGTTTCAAATCTGCTCTGTGCAAAGGGACGTTCCACTCTGTGAGTTGAATACACACAGCACAAAGAAGTTACTGAGAATTCTTCTGTCTAGCATGAAATGAAGAAATCCCGTTTCCAACGAAGGCCTCAATGCGGTCCAAATAGAT
binding result (CENP-B DBD): binds
